Experimental data as given in patent US20250228955A1.

Target: recombinant HIV-1 trimeric spike (BG505 SOSIP.664) (HIV-1)

B1: ODIN-1 (VHH-72.18 with UL-CDR3 from NC-Cow1 bovine IgG in FR2 loop) (bispecific antibody, V domains shown)
VH: MGWFRQTNKKECPEDYTYNPRCPQQYGWSDCDCMGDRFGGYCRQDGCSNYIHRSTREFVATISWSGGSTYYTDSVKGRFTISRDNAKNTVYLQMNSLKPDDTAVYYCAAAGLGTVVSEWDYDYDYWGQGTQVTVSS
Kd: 30 nM
